Results on 1 molecule are retold here after paper PMC11160874 (2024).

For experiment [1], the target named is T1, microtubule (alpha/beta-tubulin, taxol-stabilized) (Sus scrofa, UniProt P02550).
T1 chain 1: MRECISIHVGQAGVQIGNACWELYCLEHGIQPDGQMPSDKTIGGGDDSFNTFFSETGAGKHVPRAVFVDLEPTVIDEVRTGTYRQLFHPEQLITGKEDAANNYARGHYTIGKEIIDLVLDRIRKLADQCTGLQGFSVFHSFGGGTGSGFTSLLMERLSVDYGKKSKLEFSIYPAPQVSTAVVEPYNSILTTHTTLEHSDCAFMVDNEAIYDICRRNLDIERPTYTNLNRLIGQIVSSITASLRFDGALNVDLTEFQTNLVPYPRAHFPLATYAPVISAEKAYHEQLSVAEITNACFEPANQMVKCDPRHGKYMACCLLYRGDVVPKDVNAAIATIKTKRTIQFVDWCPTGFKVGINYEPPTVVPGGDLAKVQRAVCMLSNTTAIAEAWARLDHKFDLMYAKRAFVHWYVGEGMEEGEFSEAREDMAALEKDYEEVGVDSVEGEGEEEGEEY
T1 chain 2: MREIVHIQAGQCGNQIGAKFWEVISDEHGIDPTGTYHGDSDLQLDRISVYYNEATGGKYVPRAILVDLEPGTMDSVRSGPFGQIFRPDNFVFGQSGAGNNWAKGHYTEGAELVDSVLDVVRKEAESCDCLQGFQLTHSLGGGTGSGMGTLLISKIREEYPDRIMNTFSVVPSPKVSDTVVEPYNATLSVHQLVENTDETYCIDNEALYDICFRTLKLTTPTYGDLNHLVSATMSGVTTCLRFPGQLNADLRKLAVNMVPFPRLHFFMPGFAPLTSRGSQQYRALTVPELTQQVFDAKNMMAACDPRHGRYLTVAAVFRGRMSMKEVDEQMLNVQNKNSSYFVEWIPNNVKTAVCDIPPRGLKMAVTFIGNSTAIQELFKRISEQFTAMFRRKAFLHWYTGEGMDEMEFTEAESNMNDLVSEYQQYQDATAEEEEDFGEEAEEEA
Nature of the experiment: TIRF microscopy, no added salt.

The target in experiment [2] is T1, microtubule (alpha/beta-tubulin, …). Nature of the experiment: TIRF microscopy, 150 mM salt.

B1: HURP 1-285 (protein)
chain: MSSSHFASRHRKDISTEMIRTKIAHRKSLSQKENRHKEYERNRHFGLKDVNIPTLEGRILVELDETSQGLVPEKTNVKPRAMKTILGDQRKQMLQKYKEEKQLQKLKEQREKAKRGIFKVGRYRPDMPCFLLSNQNAVKAEPKKAIPSSVRITRSKAKDQMEQTKIDNESDVRAIRPGPRQTSEKKVSDKEKKVVQPVMPTSLRMTRSATQAAKQVPRTVSSTTARKPVTRAANENEPEGKVPSKGRPAKNVETKPDKGISCKVDSEENTLNSQTNATSGMNPDG
modifications: C-terminal eGFP, taxol-stabilized microtubules
What is called Kd is a measure of binding affinity in units of concentration. Take B1: the Kd in experiment [1] was roughly 33 nM; in experiment [2], roughly 600 nM.
